# B1: HPPDm-1-02: nucleotide sequence encoding Avena sativa HPPD with A107 deletion+F372A+F383W; vector DBN11780 (nucleic acid)
# DNA: ATGCCACCTACTCCAGCTACAGCTACTGGTGCTGCTGCTGCTGCCGTTACTCCTGAGCACGCTGCCAGGTCATTCCCCAGGGTGGTTCGCGTGAACCCCAGATCTGATAGGTTCCCAGTTCTGAGCTTCCACCATGTTGAGCTGTGGTGCGCTGATGCTGCTTCTGCTGCTGGCAGGTTCTCTTTCGCTCTTGGTGCTCCACTCGCTGCTAGATCTGATCTGTCTACAGGAAATAGCGCTCATGCCTCACTCCTGCTTCGCTCAGGTGCTTTGGCCTTCCTCTTCACCGCTCCATATGCTCCCCCACCTCAGGAGGCTACTGCTGCTGCTACAGCCTCCATTCCAAGCTTCTCAGCTGATGCCGCTAGAACCTTCGCTGCTGCTCATGGACTTGCCGTGAGGTCTGTTGGTGTTCGCGTGGCTGATGCTGCTGAGGCTTTCAGAGTTTCCGTTGCCGGCGGAGCTAGGCCAGCTTTCGCTCCTGCTGATTTGGGACATGGTTTCGGCCTGGCTGAGGTTGAGCTTTACGGTGACGTGGTTCTCCGCTTCGTGTCTTACCCAGATGAGACTGACCTGCCTTTCCTTCCCGGCTTCGAGAGAGTTTCCTCTCCTGGTGCCGTGGATTACGGCCTGACAAGGTTCGACCACGTGGTTGGAAACGTTCCCGAGATGGCTCCAGTGATCGATTACATGAAGGGCTTCCTTGGATTCCATGAGTTCGCCGAGTTCACTGCTGAGGACGTGGGAACCACTGAGTCCGGTTTGAACTCTGTGGTTCTCGCCAACAATTCTGAGGCTGTTTTGCTCCCTCTGAATGAGCCTGTGCATGGAACCAAGAGGAGAAGCCAGATTCAAACTTACCTGGAGTACCACGGTGGCCCTGGAGTTCAGCATATCGCCCTTGCTTCTAATGATGTGTTGCGCACACTCAGAGAGATGCGCGCCAGAACCCCCATGGGAGGTTTCGAGTTCATGGCCCCACCACAGGCTAAGTACTACGAGGGCGTTAGAAGGATTGCTGGAGACGTGTTGAGCGAGGAGCAGATCAAGGAGTGCCAAGAGCTGGGTGTTCTTGTGGATAGGGATGACCAGGGCGTTCTGCTTCAAATTGCCACTAAGCCAGTGGGCGACCGCCCTACATTCTGGCTTGAGATGATTCAAAGAATCGGCTGCATGGAGAAGGATGAGGTTGGACAGGAGTACCAAAAGGGCGGATGCGGTGGCTTCGGAAAGGGTAACTTCAGCGAGTTGTTCAAGTCAATCGAGGACTACGAGAAGAGCCTCGAGGTGAAGCAGTCAGTGGTTGCCCAAAAGTCCTGA
# modifications: HPPDm-1-02 Nucleotide Sequence
# notes: vector DBN11780
# B2: HPPDm-2-02: nucleotide sequence encoding Avena sativa HPPD with A111T+F372A+F383W; vector DBN11783 (nucleic acid)
# DNA: ATGCCACCTACTCCAGCTACAGCTACTGGTGCTGCTGCTGCTGCCGTTACTCCTGAGCACGCTGCCAGGTCATTCCCCAGGGTGGTTCGCGTGAACCCCAGATCTGATAGGTTCCCAGTTCTGAGCTTCCACCATGTTGAGCTGTGGTGCGCTGATGCTGCTTCTGCTGCTGGCAGGTTCTCTTTCGCTCTTGGTGCTCCACTCGCTGCTAGATCTGATCTGTCTACAGGAAATAGCGCTCATGCCTCACTCCTGCTTCGCTCAGGTGCTTTGGCCTTCCTCTTCACCGCTCCATATGCTCCCCCACCTCAGGAGGCTGCTACTGCTGCTACTACAGCCTCCATTCCAAGCTTCTCAGCTGATGCCGCTAGAACCTTCGCTGCTGCTCATGGACTTGCCGTGAGGTCTGTTGGTGTTCGCGTGGCTGATGCTGCTGAGGCTTTCAGAGTTTCCGTTGCCGGCGGAGCTAGGCCAGCTTTCGCTCCTGCTGATTTGGGACATGGTTTCGGCCTGGCTGAGGTTGAGCTTTACGGTGACGTGGTTCTCCGCTTCGTGTCTTACCCAGATGAGACTGACCTGCCTTTCCTTCCCGGCTTCGAGAGAGTTTCCTCTCCTGGTGCCGTGGATTACGGCCTGACAAGGTTCGACCACGTGGTTGGAAACGTTCCCGAGATGGCTCCAGTGATCGATTACATGAAGGGCTTCCTTGGATTCCATGAGTTCGCCGAGTTCACTGCTGAGGACGTGGGAACCACTGAGTCCGGTTTGAACTCTGTGGTTCTCGCCAACAATTCTGAGGCTGTTTTGCTCCCTCTGAATGAGCCTGTGCATGGAACCAAGAGGAGAAGCCAGATTCAAACTTACCTGGAGTACCACGGTGGCCCTGGAGTTCAGCATATCGCCCTTGCTTCTAATGATGTGTTGCGCACACTCAGAGAGATGCGCGCCAGAACCCCCATGGGAGGTTTCGAGTTCATGGCCCCACCACAGGCTAAGTACTACGAGGGCGTTAGAAGGATTGCTGGAGACGTGTTGAGCGAGGAGCAGATCAAGGAGTGCCAAGAGCTGGGTGTTCTTGTGGATAGGGATGACCAGGGCGTTCTGCTTCAAATTGCCACTAAGCCAGTGGGCGACCGCCCTACATTCTGGCTTGAGATGATTCAAAGAATCGGCTGCATGGAGAAGGATGAGGTTGGACAGGAGTACCAAAAGGGCGGATGCGGTGGCTTCGGAAAGGGTAACTTCAGCGAGTTGTTCAAGTCAATCGAGGACTACGAGAAGAGCCTCGAGGTGAAGCAGTCAGTGGTTGCCCAAAAGTCCTGA
# modifications: HPPDm-2-02 Nucleotide Sequence
# notes: vector DBN11783
# How the values were obtained:
# Type in all cases: in vivo
# [1] = test system: Arabidopsis thaliana T1 plants; assay: Topramezone tolerance of transgenic Arabidopsis thaliana T1 plants (spray, bleached leaf area grade, damage score); conditions: Table 10; for Classification and statistics of the grade of pesticide damage Grade 0: number of plants at grade 0; for Classification and statistics of the grade of pesticide damage Grade 1: number of plants at grade 1; for Classification and statistics of the grade of pesticide damage Grade 2: number of plants at grade 2; for Classification and statistics of the grade of pesticide damage Grade 3: number of plants at grade 3; for Scores: pesticide damage score
# In short: (§1)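 Damage graded 0–3 from the proportion of bleached leaf area 7 days after spraying. Plants were glufosinate-selected T1 lines, 18 days after sowing, plus vector and wild-type controls. Rates: mesotrione 52.5–420, isoxaflutole 35–280, topramezone 25–200 g ai/ha, with water (0×).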
# [2] = test system: Arabidopsis thaliana T1 plants; assay: Isoxaflutole tolerance of transgenic Arabidopsis thaliana T1 plants (spray, bleached leaf area grade, damage score); conditions: Table 11; for Classification and statistics of the grade of pesticide damage Grade 0: number of plants at grade 0; for Classification and statistics of the grade of pesticide damage Grade 1: number of plants at grade 1; for Classification and statistics of the grade of pesticide damage Grade 2: number of plants at grade 2; for Classification and statistics of the grade of pesticide damage Grade 3: number of plants at grade 3; for Scores: pesticide damage score;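 on Scores: Weighted damage index from 0 to 100 where higher means more damage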
# In short: as §1
# [3] = test system: Arabidopsis thaliana T1 plants; assay: Mesotrione tolerance of transgenic Arabidopsis thaliana T1 plants (spray, bleached leaf area grade, damage score); design: Scores: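 damage score 0-100 computed as Σ(N×S)/(T×M)×100 over grades 0-3 with higher meaning more damage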; conditions: Table 12; for Classification and statistics of the grade of pesticide damage Grade 0: number of plants at grade 0; for Classification and statistics of the grade of pesticide damage Grade 1: number of plants at grade 1; for Classification and statistics of the grade of pesticide damage Grade 2: number of plants at grade 2; for Classification and statistics of the grade of pesticide damage Grade 3: number of plants at grade 3; for Scores: pesticide damage score
# In short: as §1
Molecule,Resistance evaluation ([1]; topramezone 100 g ai/ha (4×)),Classification and statistics of the grade of pesticide damage Grade 0 ([1]; topramezone 100 g ai/ha (4×)),Classification and statistics of the grade of pesticide damage Grade 1 ([1]; topramezone 100 g ai/ha (4×)),Classification and statistics of the grade of pesticide damage Grade 2 ([1]; topramezone 100 g ai/ha (4×)),Classification and statistics of the grade of pesticide damage Grade 3 ([1]; topramezone 100 g ai/ha (4×)),Scores ([1]; topramezone 100 g ai/ha (4×)),Resistance evaluation ([1]; topramezone 200 g ai/ha (8×)),Classification and statistics of the grade of pesticide damage Grade 0 ([1]; topramezone 200 g ai/ha (8×)),Classification and statistics of the grade of pesticide damage Grade 1 ([1]; topramezone 200 g ai/ha (8×)),Classification and statistics of the grade of pesticide damage Grade 2 ([1]; topramezone 200 g ai/ha (8×)),Classification and statistics of the grade of pesticide damage Grade 3 ([1]; topramezone 200 g ai/ha (8×)),Scores ([1]; topramezone 200 g ai/ha (8×)),Resistance evaluation ([2]; isoxaflutole 140 g ai/ha (2×)),Classification and statistics of the grade of pesticide damage Grade 0 ([2]; isoxaflutole 140 g ai/ha (2×)),Classification and statistics of the grade of pesticide damage Grade 1 ([2]; isoxaflutole 140 g ai/ha (2×)),Classification and statistics of the grade of pesticide damage Grade 2 ([2]; isoxaflutole 140 g ai/ha (2×)),Classification and statistics of the grade of pesticide damage Grade 3 ([2]; isoxaflutole 140 g ai/ha (2×)),Scores ([2]; isoxaflutole 140 g ai/ha (2×)),Resistance evaluation ([2]; isoxaflutole 280 g ai/ha (4×)),Classification and statistics of the grade of pesticide damage Grade 0 ([2]; isoxaflutole 280 g ai/ha (4×)),also measured
B1,Highly resistant,16,0,0,0,0,Highly resistant,16,0,0,0,0,Highly resistant,16,0,0,0,0,Highly resistant,12,Classification and statistics of the grade of pesticide damage Grade 1 ([2]; isoxaflutole 280 g ai/ha (4×)): 4; Classification and statistics of the grade of pesticide damage Grade 2 ([2]; isoxaflutole 280 g ai/ha (4×)): 0; Classification and statistics of the grade of pesticide damage Grade 3 ([2]; isoxaflutole 280 g ai/ha (4×)): 0; Scores ([2]; isoxaflutole 280 g ai/ha (4×)): 8; Resistance evaluation ([3]; mesotrione 210 g ai/ha (2×)): Highly resistant; Classification and statistics of the grade of pesticide damage Grade 0 ([3]; mesotrione 210 g ai/ha (2×)): 16; Classification and statistics of the grade of pesticide damage Grade 1 ([3]; mesotrione 210 g ai/ha (2×)): 0; Classification and statistics of the grade of pesticide damage Grade 2 ([3]; mesotrione 210 g ai/ha (2×)): 0; Classification and statistics of the grade of pesticide damage Grade 3 ([3]; mesotrione 210 g ai/ha (2×)): 0; Scores ([3]; mesotrione 210 g ai/ha (2×)): 0; Resistance evaluation ([3]; mesotrione 420 g ai/ha (4×)): Highly resistant; Classification and statistics of the grade of pesticide damage Grade 0 ([3]; mesotrione 420 g ai/ha (4×)): 15; Classification and statistics of the grade of pesticide damage Grade 1 ([3]; mesotrione 420 g ai/ha (4×)): 1; Classification and statistics of the grade of pesticide damage Grade 2 ([3]; mesotrione 420 g ai/ha (4×)): 0; Classification and statistics of the grade of pesticide damage Grade 3 ([3]; mesotrione 420 g ai/ha (4×)): 0; Scores ([3]; mesotrione 420 g ai/ha (4×)): 2
B2,Highly resistant,16,0,0,0,0,Highly resistant,16,0,0,0,0,Highly resistant,16,0,0,0,0,Highly resistant,12,Classification and statistics of the grade of pesticide damage Grade 1 ([2]; isoxaflutole 280 g ai/ha (4×)): 3; Classification and statistics of the grade of pesticide damage Grade 2 ([2]; isoxaflutole 280 g ai/ha (4×)): 1; Classification and statistics of the grade of pesticide damage Grade 3 ([2]; isoxaflutole 280 g ai/ha (4×)): 0; Scores ([2]; isoxaflutole 280 g ai/ha (4×)): 10; Resistance evaluation ([3]; mesotrione 210 g ai/ha (2×)): Highly resistant; Classification and statistics of the grade of pesticide damage Grade 0 ([3]; mesotrione 210 g ai/ha (2×)): 16; Classification and statistics of the grade of pesticide damage Grade 1 ([3]; mesotrione 210 g ai/ha (2×)): 0; Classification and statistics of the grade of pesticide damage Grade 2 ([3]; mesotrione 210 g ai/ha (2×)): 0; Classification and statistics of the grade of pesticide damage Grade 3 ([3]; mesotrione 210 g ai/ha (2×)): 0; Scores ([3]; mesotrione 210 g ai/ha (2×)): 0; Resistance evaluation ([3]; mesotrione 420 g ai/ha (4×)): Highly resistant; Classification and statistics of the grade of pesticide damage Grade 0 ([3]; mesotrione 420 g ai/ha (4×)): 14; Classification and statistics of the grade of pesticide damage Grade 1 ([3]; mesotrione 420 g ai/ha (4×)): 2; Classification and statistics of the grade of pesticide damage Grade 2 ([3]; mesotrione 420 g ai/ha (4×)): 0; Classification and statistics of the grade of pesticide damage Grade 3 ([3]; mesotrione 420 g ai/ha (4×)): 0; Scores ([3]; mesotrione 420 g ai/ha (4×)): 4

# Source: patent US20250043302A1, “MUTATED HYDROXYPHENYLPYRUVATE DIOXYGENASE POLYPEPTIDE, AND CODING GENE AND USE THEREOF” (BEIJING DABEINONG BIOTECHNOLOGY CO., LTD., priority 2021, published 2025)
